Assay results from the DeepSol protein solubility set.

Test: soluble on expression in E. coli; label from the status in PepcDB or PDB records

Soluble on expression in E. coli, not soluble:
MKILYIILFIQIGWIFPLSAQKQDSIYIGTRHTLFSEILNEERKYWIYVPETKAGEKGKAYPVLYLLDGDSFFHSVVGFTRFFSSSKTSNLPPCIVVAVLNTDRTRDFTPTCSAARRDGTICPYDKPAGGGAEQFHRFLIEELRLEVENKVPANGTNFLVGHSYAGLFTLQTLSNHPESFDSYIAIDPSLWWDRGVFLQQAAKNVYQKDFSGKHLYVAFATRQRPAIKLIQFSLADSLKNKIIPEMKNKHLHVVYKKFPDEVHGTIALPAIFDGLKSLFHNTISTKEAT, MGNSLHQIKCCTSFIHCQNAAVDAPSIAKTLADYLYPAFFHQDLPAPLKISVTGCPNQCGGGVEADIGISGYFATVPRVDDAGLMAANIDFGHLISGCPVGAIRPRQVEGGTTVVINAERCIRCTSCIQVAPEGIKPGPERFVAIAVGGHGGNNRRGPEMAAVVFSRVPARPLDYAAICERVQRIIACWRDRGKRGERLAGFLERLEHHHHHH, MGSDKIHHHHHHMSMNSEPTPAEAFFLEGNRLLAASECRAAEACFREALALAPDFAEAHANLGMLLDQEGMAAEAERQYRLALALNPRLGHTHSNLGVLLANQKRFEEAESAYLSAIELEPDSPAAWSNLGVLQACRKQEREAEESYRTALRLDPDYHRASFNLSYLLLRQGRFDEGWSLLESRNRRWFARLEEHLPCPRWRGEDLQGRSLLIGLEAGHGDMIQFCRYAPLLKDRGAARITLVCHVALKDLLKTLDGVDTVISFDEILPDDAWDFWTPAMSIPCYCRTRLDSIPARIPYLHADPGLAEQWAAMLEREWAGPEMRIGLAWKGNPHFENDGDRSLPHLKTLEPLGAVAGVRFFSLQKGAGEEEAAQPPAGLPVVNLMRHIAGFADTAALVANLDLVITVDTAVAHLAGALGTECWVLLPEYRTDWRWLTGRTDSPWYPGVMRLFRQPRVGDWETVVAEVGEALRLFAARPRSPRGTR, MGSDKIHHHHHHMINSYISQQIERNFPYKPTDDQFLALHTLTEFLLSEEPDSLLLMKGYAGTGKTSLVGALVKTLNELKQKTFLLAPTGRAAKVFSGYAGQKAYTIHKKIYRQRAFSNEPTGFMPADNLHKDTLFIVDEASMIANEGLDSFVFGSGRLLDDLIQYVYSGENCRLILMGDVAQLPPVMQTESPALNPEILRGYNLQVWEIALTQVVRQSEDSGILFNATRLRDALRNHTVEIFPKLQLKGFSDFTKVNGDELIEEISSAYSRDGMEETMIISRSNKRATIYNNGIRNRILYREEELSSGDRLMVAKNNYYWTANCKEMDFIANGEIIQVMRVRRVTEMYGFRFADITARFQDYDLEIDLKILLDTLQTDSPALPKELNDKLFYTILEDYEDIPTKAGKMKKMKVDPHYNVVQVKYAYAVTCHKAQGGQWMNVFLDIGYITEEMLGEDFYRWLYTAFTRATHHLYLVNLPDEFVE, SAVVPASLSGQDVGSFAYLTIKDRIPQILTKVIDTLHRHKSEFFEKHGEEGVEAEKKAISLLSKLRNELQTDKPFIRLVEKFVDTDIWNQYLEYQQSLLNESDGKSRWFYSPWLLVECYIDRRIHEAIIQSPPIDYFDVFKESKEQNFYGSQESIIALCTHLQQLIRTIEDLYENQLKDEFFKLLQISLWGNKCDLSLSGGESSSQNTNVLNSLEDLKPFILLNDMEHLWSLLSNCKKTREKASATRVYIVLDNSGFELVTDLILADFLLSSELATEVHFYGKTIPWFVSDTTIHDFNWLIEQVKHSNHKWMSKCGADWEEYIKMGKWVYHNHIFWTLPHEYCAMPQVAPDLYAELQKAHLILFKGDLNYRKLTGDRKWEFSVPFHQALNGFHPAPLCTIRTLKAEIQVGLQPGQGEQLLASEPSWWTTGKYGIFQYDGPL, MKKGVHLVFILVASLLSSFSVMAQSLQASVNKTEVAKNEVINLRIMADSEVASDAIDFSVLEKDFFLGQPRYGRSSNNINGRKYQRTEWSISIAPMKEGIITIPSFSADGMKTEPIQLKVTANKSAPDLDDLFSFNMSVDNHTLYPQQSANLRMQLIIKADTRRLDNPQVV, MTTLNKENIQKEFKERLSEDELLNCMRCGFCLPTCPTYIQSGYKESHSPRGRIALMKAVVDGLIEPDEDVENTLNVCLGCRACEPVCPSGVNYGHLLEEARDIINQNKKFSMPVRAVRKVVFEELFPHQNRMRTLTGLIGFYQRSGLQTITHKTGIMKLFPETLATMDLVLPKVPKMKAMKDRPTFLPAESTKKKQVAFFTGCLMDTMFLETNNATMKLLQLAGCDIVIPKTQSCCGALHGHAGEKSGAKELAKRNIKAFEDLNIDYIITNAGGCGAYLVDYDYLLKDDPQWAGRAKQFVSKIKDITAILVELDFHKRNDLRLTPQIITYQDSCHLRNVMRTSSEPRMLLEAIQGATYREMKDADRCCGSAGIYNIVHSELSMEFLDYKMDRVHETDATTIVTANPGCLLQMKLGIEREGLSHKMRGIHIVDLLLEAIETNS, MSYKAYPFFRDILINECIYFASKNKKLVRLNYKSEAYVGVWTEESVAVSFLTSRDIPFDKVVKMDVDRFATYELDELFDEQDHIIMNQTMEEEGHLLNVVAVTQEVMTELDKIRIKEFVQDVAKYDEVYGLTKKGSKQFILISENDSDEKKPHIMPVWSIKNRALKVRDEDFEECDLITIEGSVFGEWLDELRDDHKAVAIDLKTGVVGTIVSAQKLSNELTF, MLIFGVIMVTIIVLFHPILTNQRDTIVTSTFKEIASDACYYINLGVKVEDYEHEPLNNLVGNVKCNFLGISVDSTTGEIRVTLKFEVNGNAQDFASGIIEYIKRRITEIRGFTITDKGEIFYRDSKITIEILTLEHHHHHH, MVSPLKTRCCSPSSQQQASEAREIEQPSTVWELDFYSRPVYGKDNKRIWELIVVDESFLLCHVESVPNDMINSAELRKRVERLLEQVTVKPKVVKFSRMPMFNMISLALKDLGFEVKPSRRTYRLYHVLRDREANIYSKMPGYRSENTLSTSYLYSTERLPDALRGEKFAFCTADYSFLYELQSSDTIPYCDIFNTGDSILLEKELPGIIVYSERADSLASWTAGAEVSFIKFREEELELVLECGINSHYRLAKIAEDHRLVEEAKTFEQMKWHMKGFHFYAIQSLKETSGTSHIKGLWLLNDFMEQ, MEAVWGILPKTVAAALQHHLPSCRRGIEEIRIRVSRPLEVIVDGTARLLPYEVTKEDGVHLLNKLSHYSIYAVEEELKRGFMTIEGGHRVGLAGKVITEGGKVKAIRDVSSFNIRIAKEQIGISEPLIPYVYDGRWRHTMIIGSPQTGKTTLLRDAARLISSGTGRIPAQKVAIVDERSEIAGCVKGIPQFSFGPRLDVLDACPKAEGMMMMIRSMSPDVMIVDEIGREEDSEAVLEAANAGVSVWTTVHGRNIQDVWQRPTLGPVMEQKVFERFIELTNIPHPGSIRRILDAGGTVLYERAVVHR, IKTTKALQLNDEQQVAVDQITQAVDQAATTTFLLEGVTGSGKTEVYLQSMAAALVQGKTALMLVPEISLTPQMVQRVKGRFGKAVAVLHSGLSSGEKYDEWRRIQRGEAQVVVGARSAVFAPLKNLGLIVMDEEHESTYKQDDAPRYHARQVALWRSRYHNCPVVLGSATPSLETRARAEKG

Soluble on expression in E. coli, soluble:
AHHHHHHGSGKLDWIREELEELKKKGLYVTIRVLQSAQGPWVIVNGKKVLNMCSNNYLGLAAHPKIKEAAIRAILDYGVGAGAVRTIAGTMDLHVELEEKLAKFKKREAAILFQSGYNANLGAISALLRKGEDGVFLSEELNHASIIDGMRLSGAPKVIYKHLDMEDLKKKLEENKDKKKKIIVTDGVFSMDGDLAPLPEIVELAEQYDAIVYVDDAHGEGVLGSHGRGIVDHFNLHDKVDFEMGTLSKAFGVIGGYVAGPEEAIEYLKQRARPFLFSSAPNPPDVAAAIAAVEILQKSDDLVKKLWDNTHFLQKGLRDLGYDLGNTKHPITPVMLYDEKLAQEFSRRLFEEYNIFAQAIVYPTVPLGTARIRLEPSAAHTKEDLKLVIDAFEDLGRKTGFLK, MKLTLWTYEGPPHVGAMRVATAMKDLQLVLHGPQGATYADLLFTMIERRNARPPVSFSTFEASHMGTDTAILLKDALAAAHARYKPQAMAVALTCTAELLQDDPNGISRALNLPVPVVPLELPSYSRKENYGADETFRALVRALAVPMERTPEVTCNLLGATALGFRHRDDVAEVTKLLATMGIKVNVCAPLGASPDDLRKLGQAHFNVLMYPETGESAARHLERACKQPFTKIVPIGVGATRDFLAEVSKITGLPVVTDESTLRQPWWSASVDSTYLTGKRVFIFGDGTHVIAAARIAAKEVGFEVVGMGCYNREMARPLRTAAAEYGLEALITDDYLEVEKAIEAAAPELILGTQMERNIAKKLGLPCAVISAPVHVQDFPARYAPQMGFEGANVLFDTWVHPLVMGLEEHLLTMFREDFEFHDAAGASHHGGKAVAREESPVAPADLAPAATSDTPAAPSPVVVTQASGEIRWMPEAERELRKIPFFVRGKAKRNTELYAAHKGVCDITVETLYEAKAHYAR, MSLATTSTEPPTELSGEITMWHSFTQGPRLESIQKSADAFMQKHPKTKIKIETFSWNDFYTKWTTGLANGNVPDISTALPNQVMEMVNSDALVPLNDSIKRIGQDKFNETALNEAKIGDDYYSVPLYSHAQVMWVRTDLLKEHNIEVPKTWDQLYEASKKLKEAGVYGLSVPFGTNDLMATRFLNFYVRSGGGSLLTKDLKADLTSQLAQDGIKYWVKLYKEISPQDSLNFNVLQQATLFYQGKTAFDFNSGFHIGGINANSPQLIDSIDAYPIPKIKESDKDQGIETSNIPMVVWKNSKHPEVAKAFLEALYNEEDYVKFLDSTPVGMLPTIKGISDSAAYKENETRKKFKHAEEVITEAVKKGTAIGYENGPSVQAGMLTNQHIIEQMFQDIITNGTDPMKAAKEAEKQLNDLFEAVQEGHHHHHH, MSLAVLAPRVASVGVHSIDHFALEVPDLSAAKVFFGAFGLAVDETIDGLELRASASDHVWARVLKGSRKQLAYLSLNCFGDDLAALTAQVETAGGKPCAAHAGAHDPEGFWFEDPDGNRLQIRTGDKTSPGLKKAAVAAKVRRGLRGAAARHEAPAVHPTRLSHVLLFTPDIERAIQFYRDALGLKFSDGSKGIVAFMHGRHGSDHHLVAFVQSSAKGWHHSAWDVPTVEEVGLGKMQMARAGFVDGWGVGRHVLGSNHFHYVRDPWGSFCEYSADIDFVPPGVEWPSADHPPEDSLYLWGPDVPAYFIENTEAQREGHHHHHH, MDRQAIEKTAGHLRPLMPTPPEIGLILGSGLGVLADEIEEAVRIPYEDIPGFPVSTVEGHAGRLVYGRLEGATVVAMQGRFHYYEGYSLQEVTFPVRVMKALGVRELIVTNAAGGINERFQPGDFMIISDHINLLGTNPLIGPNDPELGPRFPDMTEAYSRRLRELAKETAARLGVRVHEGVYVANTGPSYETPAEIRMIRTLGGDAVGMSTVPEVIVARHGGIEVLGISCISNMAAGMSDAPLHHDEVVETAERVKTDFLRFVKAIVAEMAKSKRKR, SLKKKSLKLTALFLALSCFPAFAEQTVDIEVQGIRGFRAVRNTDLNVNLINKEEMDGSERYQHLVTKAVDRGLRVFGYYESSVRFERKQRQGKRDLLIAHVTPGEPTKIAGTDVQIEGEAAQDENFNALRKNLPKDGVLVEHQTYDDYKTAISRLALNRGYFDGNFKISRLEISPETHQAWWRMLFDSGVRYHYGNITFSHSQIRDDYLNNILNIKSGDPYLMNNLSDLTSDFPSSNWFSSVLVQPNVNHKSKTVDVEIILYPRKKNAMELGVGFSTDGGVHGQIGWTKPWINSRGHSLRSNLYLSAPKQTLEATYRMPLLKNPLNYYYDFAVGWEGEKENDTNTRVLTLSALRYWNNAHGWQYFGGLRMRYDSFTQADITDKTLLLYPTVGFTRTRLRGGSFATWGDVQKITFDLSKRIWLSESSFIKVQASSAWVRTYAENHRVVARAEIGYLHTKGIEKIPPTLRFFAGGDRSVRGYGYKKIAPKNRNGKLVGGSRLLTTSLEYQYQVYPNWWAATFADSGLAADNYTAKELRYGTGVGVRWASPVGAIKFDIATPIRDKDNSKNIQFYIGLGTEI
